Blank lines part the entries; values can stand above or below the binder they belong to.
Tests used:
[1] = target: T1, B. stearothermophilus DnaB, main replicative ring helicase (B. stearothermophilus, UniProt Q9X4C9 1-454); assay: SEC
T1 sequence (looked up): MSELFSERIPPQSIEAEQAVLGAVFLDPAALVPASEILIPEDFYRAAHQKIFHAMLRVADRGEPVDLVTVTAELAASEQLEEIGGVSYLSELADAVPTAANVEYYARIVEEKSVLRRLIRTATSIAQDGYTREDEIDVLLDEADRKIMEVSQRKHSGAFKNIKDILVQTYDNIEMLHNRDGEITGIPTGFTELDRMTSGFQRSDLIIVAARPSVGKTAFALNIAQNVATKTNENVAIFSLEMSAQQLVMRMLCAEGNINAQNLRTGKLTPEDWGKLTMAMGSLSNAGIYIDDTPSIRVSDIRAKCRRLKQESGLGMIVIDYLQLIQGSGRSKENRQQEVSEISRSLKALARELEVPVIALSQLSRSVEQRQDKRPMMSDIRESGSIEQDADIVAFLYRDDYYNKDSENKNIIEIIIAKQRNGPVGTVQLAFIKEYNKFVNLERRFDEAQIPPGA

DnaD [2] = target: T2, DnaD (Bacillus subtilis (strain 168 EMG50), UniProt P39787 1-232); assay: EMSA
T2 sequence: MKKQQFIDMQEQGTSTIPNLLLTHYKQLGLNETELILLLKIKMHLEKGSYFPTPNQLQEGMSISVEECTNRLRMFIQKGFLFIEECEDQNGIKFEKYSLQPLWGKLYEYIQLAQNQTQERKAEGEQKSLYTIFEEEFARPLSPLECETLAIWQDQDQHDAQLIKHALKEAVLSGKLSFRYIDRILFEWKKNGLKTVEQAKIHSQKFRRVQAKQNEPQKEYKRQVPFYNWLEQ

DnaD [3] = target: T2, DnaD; assay: sedimentation velocity ultracentrifugation

binding result [1]: binds
B1: B. subtilis DnaI, putative helicase loader (natural protein, UniProt P06567 1-311, looked up)
chain: MEPIGRSLQGVTGRPDFQKRLEQMKEKVMKDQDVQAFLKENEEVIDQKMIEKSLNKLYEYIEQSKNCSYCSEDENCNNLLEGYHPKLVVNGRSIDIEYYECPVKRKLDQQKKQQSLMKSMYIQQDLLGATFQQVDISDPSRLAMFQHVTDFLKSYNETGKGKGLYLYGKFGVGKTFMLAAIANELAEKEYSSMIVYVPEFVRELKNSLQDQTLEEKLNMVKTTPVLMLDDIGAESMTSWVRDEVIGTVLQHRMSQQLPTFFSSNFSPDELKHHFTYSQRGEKEEVKAARLMERILYLAAPIRLDGENRRHP

B2: 33mer oligonucleotide (radiolabeled) (ssDNA)
DNA: TGCATGCCTGCAGGTCGACTCTAGAGGATCCCC
binding result (DnaD [2]): binds

B3: 33mer oligonucleotide (5'-HEX) (ssDNA)
DNA: TGCATGCCTGCAGGTCGACTCTAGAGGATCCCC
binding result (DnaD [3]): binds
